Reference: patent US20100279930A1 (published 2010)
Where two headings read alike, the source gives them in different places. No end group written: not given here.

How the values were obtained:
Assay in all cases: 125I-PP displacement
human Y4 receptor [1] = biological target: T1, human Y4 receptor (human, UniProt P50391 1-375)
human Y4 receptor [2] = biological target: T1, human Y4 receptor; remark: listed apart in the source
human Y4 receptor [3] = biological target: T1, human Y4 receptor; remark: listed apart in the source
human Y4 receptor [4] = biological target: T1, human Y4 receptor; remark: listed apart in the source

T1 sequence (P50391 whole entry): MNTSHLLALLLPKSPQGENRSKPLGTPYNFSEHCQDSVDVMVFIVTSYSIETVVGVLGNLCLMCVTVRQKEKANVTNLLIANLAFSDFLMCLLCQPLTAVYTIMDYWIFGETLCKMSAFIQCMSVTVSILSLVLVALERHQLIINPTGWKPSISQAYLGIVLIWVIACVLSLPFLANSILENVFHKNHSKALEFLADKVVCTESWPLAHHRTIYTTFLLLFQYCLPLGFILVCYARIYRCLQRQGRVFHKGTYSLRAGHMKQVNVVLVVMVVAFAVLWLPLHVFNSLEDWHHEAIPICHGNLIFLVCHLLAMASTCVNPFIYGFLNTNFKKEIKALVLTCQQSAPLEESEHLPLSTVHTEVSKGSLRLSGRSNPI

Row | IC50 (human Y4 receptor [2]) [nM] | Binder | further results
1 | – | APLEPVYPGDNATPEQMAQYAADLRRYINVLTRPRY (ends and bridges not checked) [compound of SEQ ID NO:260 (code 4055714)] | IC50 (human Y4 receptor [1]): 0.09 nM
2 | – | APLEPFYPGDNATPEQMAQYAADLRRYINMLTRPRY (ends and bridges not checked) [compound of SEQ ID NO:275 (code 4055745)] | IC50 (human Y4 receptor [1]): 0.17 nM
3 | 0.052 | GAPLEPKYPGDNATPEEKAKYAAELRRYINKLTRPRY [4061236] | –
4 | 0.054 | PAPLEPTYPGDNATPEEKAKYYSELRRYINKLTRPRY [4061239] | –
5 | – | GAPLEPKYPGDNATPEEMAKYAAELRRYINKLTRPRY [4058911] | IC50 (human Y4 receptor [3]): 0.077 nM
6 | 0.059 | PAPLEPKYPGDNATPEQMAKYAAELRRYINKLTRPRY [4068672] | –
7 | 0.054 | PAPLEPKYPGDNATPEEKAKYAAELRRYINKLTRPRY [4061235] | –
8 | 0.16 | PAPLEPKYPGDNATPEEMAKYAAELRRYIDKLTRPRY [4061237] | –
9 | 0.138 | GAPLEPKYPGDNATPEEMAKYAAELRRYIDKLTRPRY [4061238] | –
10 | – | APLEPSYPGDNATPEQLAKYAAELRRYINKLTRPRY [4058913] | IC50 (human Y4 receptor [3]): 0.0775 nM
11 | – | APLEPVYPGDNATPEQMAQYAADLRRYINKLTRPRY [compound of SEQ ID NO:281 (Lys 30, code 4055855)] | IC50 (human Y4 receptor [1]): 0.16 nM
12 | – | AAPLEPVYPGDNATPEQMAKYAADLRRYINKLTRPRY [compound of SEQ ID NO:348 (Ala 0, Lys19, Lys 30, code 4056385)] | IC50 (human Y4 receptor [4]): 0.051 nM
13 | – | PLEPSYPGDNATPEQLAKYAAELRRYINKLTRPRY [4058912] | IC50 (human Y4 receptor [3]): 0.0495 nM
14 | 0.145 | PLEPHYPGDDATPQQMAHYYSELRRYINKLTRPRY [4457895] | –
